The nature of the data set: soluble on expression in E. coli; label from the status in PepcDB or PDB records.
Turning to “MRRSGNYNPSRWDVNFIQSLLSDYKEDKHVIRASELVTLVKMELEKETDQIRQLELIDDLQRMGLSDHFQNEFKEILSSIYLDHHYYKNPFPKEERDLYSTSLAFRLLREHGFQVAQEVFDSFKNEEGEFKESLSDDTRGLLQLYEASFLLTEGETTLESAREFATKFLEEKVNEGGVDGDLLTRIAYSLDIPLHWRIKRPNAPVWIEWYRKRPDMNPVVLELAILDLNIVQAQFQEELKESFRWWRNTGFVEKLPFARDRLVECYFWNTGIIEPRQHASARIMMGKVNALITVIDDIYDVYGTLEELEQFTDLIRRWDINSIDQLPDYMQLCFLALNNFVDDTSYDVMKEKGVNVIPYLRQSWVDLADKYMVEARWFYGGHKPSLEEYLENSWQSISGPCMLTHIFFRVTDSFTKETVDSLYKYHDLVRWSSFVLRLADDLGTSVEEVSRGDVPKSLQCYMSDYNASEAEARKHVKWLIAEVWKKMNAERVSKDSPFGKDFIGCAVDLGRMAQLMYHNGDGHGTQHPIIHQQMTRTLFEPFA”, the “soluble on expression in E. coli” value is on record as “soluble”. With “MSGFLEQRLGHCLRQMAEKGLEALLVTHLTNSYYLTGFSGTAATVLITAKRRVLITDSRYTLLAKASVEGFDIIESRTPLKVVAELLEADQIDCLGFEDQVSFSFYQAMQAELSGITLLAQSGFVEHLR”, the “soluble on expression in E. coli” value is “soluble”. Regarding “MAHHHHHHMDGGGRVAGTGVQLKPATVHGSVECVEFDKLSGSSNLFALQTMPVYFGASRVPWRLLDVGVKERKPASESGSAGAAMWLALVRFPPRGACPMPAAMGGWGVR”, the “soluble on expression in E. coli” value is “not soluble”. The entry for “MGSDKIHHHHHHMDVAAEYPVDKPDTQVSVRDVFGIESDLTVPAFTEVSEHVPDRDDAYCFDRDTTLAVLAGFAFNRRVMIQGYHGTGKSTHIEQIASRLNWPCIRVNLDSHVSRIDLVGKDAIVLRDGLQVTEFREGILPWCLQRPIALTFDEYDAGRADVMFVIQRVLEVEGRLTLLDQNKVIRPHPYFRLFATANTVGLGDTTGLYHGTQQINQGQMDRWNIVATLNYLEHDVEVGIALAKRPEYDTPEGRAKINAMVGVADLSRSGFINGDISTVMSPRTVLTWAENATIFGDDAFAFRVTFLNKCDETERPIIAEYYQRCFGKELPESAAFRTAFL” is “not soluble”. As for “MRVVVSIGGSVLAPGLDADQVDAHADAINELTDAGCEVGAVVGGGGVARDYIGTARELGANEIELDDIGVDVTRLNARLLIAALGGDAAPSPAEDYEDAGEAMRRGDIAVMGGVVAGQTTDAVSAALAEYTDADLLLYATSVPGVFSADPNEDADAEHFTRMTAGELVDIIADIEMNAGSSAPVDLLAAKLIERSGVRTIVLDGTDPRRIVDAVRFGEHDGTDVIPDGTDNQMTYWADNQELEHHHHHH”, the “soluble on expression in E. coli” value is “not soluble”.

For “MNTLMTQIHELQHVAHELLYLGADGSPIYTDSFRQLNTEVLQKSDALFALKGENPEEEARLCLALLMGYNATIYDYGDKESKKQVILDRSLLVLESLPSSLLKCQLLTYCYGEVFEEELAKEAHAIIDYWDNKTLSIDEQETVDMLKMIEENQYPNNYID”, the “soluble on expression in E. coli” value was “not soluble”. With “MIKLKTPNSMEIAEQPAVITYVPELNAFRGKFLGLSGYCDFVSDSIQGLQKEGELSLREYLEDCKAAGIEPYARTEKIKTFTLRYPESLSERLNNAAAQQQVSVNTYIIETLNERLNHL”, the “soluble on expression in E. coli” value is given as “not soluble”. The entry for “MSLNTPLAERLRPKKLEDYLSQHHLVGENGSLQQALKAGIIPSLILWGPPGIGKTTLATIIAEESKRPFYTLSAINSGVKDIREVIDKAKQSGGLFTQKNPILFIDEIHRFSKSQQDSLLGAVERGWVTLVGATTENPSFEVIPALLSRCQVYILKPFEKKDLILLLNRAINTDEILKKKNITLLETEALLRLSGGDARKLLNIFELIVTTENDKDVVVTNDMVLSKVQQNIVRYDKTGEQHYDIISAFIKSIRGSDPNAAVYWLARMIEGGEDVKFIARRLIIAAAEDIGNANPTALVIANNCFQAVTTIGYPEARIILSQCVTYLASSPKSNAAYMAIGKAQQLVKQTGDLSVPLPLRNAPTKLMKEIGYGNDYKYSHDYPGNFVQQEFLPKEISGTTLYEPTDNTREKAIKENLKAKWGSKYNYEGHHHHHH” is “soluble”; for “MGSDKIHHHHHHMTKNSETGHISEGGGILTRPDDATIAYRRLEGKTPGVVFLHGFHSDMEGSKALALEAMCQAQGRAFLRFDYFGHGKSSGDVALGTIGRWAADAVAVIGELTKGPQILVGSSLGGWIALLAALEMKDKVAGLVGVAAAPDFTEDLMWQDFTFEQRRTLMETGELELPNCHEPDNPWRIHRSLIEDGRNHLLLRDLIQIHCPVWLIQGQKDEDVPWQTALRLADCLASEQVEIVLVKDGDHRLSRDGDLIRLTNMVAAMLGMIQEL” it is “not soluble”. On to “MLTGLLDVPYRKSFALLEELLERREAEEQTLAISTLATQLKMQQNTILQSVALLQTEIEKNGWENLFSLSANAKEITFWFAPYFQLSFLMPYFVKKSFAYQVLTYAFNHNAIDSKHFEKVLEISSSTFTRKIGQLNQWLQKYQIEINLKRTNVLVGKEKDIRIFFMMLFWNNYSEGDWPLHTITKKEVHSLFRRLKHSVSFNTTQDFTKDLIFSAVILARWKEGFFIKETFVEEEAIVNPFVNLSEFELFFKEEALHQVPTKFIQKEGLFAFFLLTISVSYATQDVLEIPAARMHMVQLLGSPIKEIIYQLTSFYQIKLTFHEYLYLYTSIQNLSVFFKTFVTIANPFVQESFLKEALQKIQVSTKM”, for which the “soluble on expression in E. coli” value is “not soluble”. Consider “MPLIRNYDYYDLLNVAPSTSAHRPTVMVTSSRSYMEPQKSRIYYGKNEWRGGNTTIHDPTEFEETTMDKNANEIAGDDKRKKKRWRDLLFPNSRHSSRKDKENSNVSVATRSLSSVSFRSEKPSRRRESGSLSRHRYIPPPPLPMPPRRIMTSTSMGYSDDAMTSSSSHTTTDYDDIVPVPTPSYVIYPAASIAQASRRQQQGSAKNRIFRSPTYHHDAFVNSHEWTLSRSISEMKLGIVGTSQSGKTALVHRYLTGTYTPDESPEGGRFKKEVVIEGQSHLLLIRDEGQQHLDVQFCQWVDAVVFVFNVCSIQSYDSIQALAHEMSKYRNISDLPLILVGTKDHISEKRARVITEDEGRQLAAQMKRCSYFETSSTYGTNVERVFKEACCKIIQLRVRSQVGAAAAASSQARTPTPTHSESGGRKDYQDPSRYISSNSFVMPSNMRPSFPSNSTRRNTVHHRGEHPQQQQYQQQPPSSSRTASERSMSAMLGTPYGNRMPAGVSPSASQKSVHSIANGCYSRSSAALLDSDTPAVNSYLIDSMSSAGFPLSQSGANQVSASTSHLPTPSSTPNTQRKNRRISNIFRQKDHQEEKSKMIESLNLGIGRAIPIKQGNLYKKSSKSALNREWKKKYVCLYSDGRLTYHTNLKEYMDKTAHGKEMDLKLATIRITGRLHPLHSHRVASSVDPMNGGGGGGTPTLKSYEPRRSDVGANSGDGTSGGGSDDAIKENQRQHFSPPAMPQTVAGKKKRESRKIGTNSKHNDEEDECFEVINNCLMRWEFCAGSLEERDEWIQAIGGEIEKSLGKEVANAKTNNRAVANRPDIAALRSIPGNGRCADCGNPSSEWASINLGIIICIECSGIHRNLGSHISKVRGLELDQWPVEHLAVMQAIGNDKANEMWEFGLLNGERKPTPESSREEKERFIDRKYVQKAFLKPIASGEPVTSQLISAVLARDVMSLNVLLANGMSVEEINTTTKDGRTVLHLAASIGSVELAQLLIWHNADAQILDNNGRSCLFYARSNGFREVFDMLVTAGLSPDYGLPQEINDFSQMPEFFAMGSTSNRDYSTSGDEMYGSRRISMGPPPQVPARRYLPQQPELDETSVI”, for which the “soluble on expression in E. coli” value is listed as “not soluble”. In the case of “MGKRLLDKLWERHVVTTNENGLDLLYIDLHLVHEVTSPQAFEGLRLTNRTVRRPDLTFATMDHNIPTKDVWNITDRIAKQQLDTLRENCKQFQVPLADIGDEEQGIVHVIGPELGLTQPGKTIVCGDSHTATHGAFGALAFGIGTSEVEHVLATQTLWQRKPKAMGIELKGKLQKGVYAKDIILHLLSKYGVAVGTGYVMEFYGETIGTMEMEERMTLCNMAIEGGAKAGIIAPDEKTFAYVKGRKYAPRDYETFEKKWFELYTDADAIYDLHISIDVTDLAPYVTWGTNPSMGVRIDEKLPEKHDVNDERAFSYMGLIPGQSTYDIPVQHVFIGSCTNSRLSDLEIAASVVKGRKVKEGVRALVVPGSKRVRDAAMQKGLHHIFEEAGFEWREPGCSMCLGMNPDQVPEGEHCASTSNRNFEGRQGKGARTHLVSPAMAAAAALYGHFVDIRKESYDGAISYS”, the “soluble on expression in E. coli” value was “not soluble”.

For the sequence “MSLNKKMIFFDIDGTIVDEKTHVIPEGTIAAIKKARSNGHLVFINTGRTFFNVPDSIRQIGFDGYVCGCGTYIHINGQTLLEKSISHKRCVEIVEKLRECKLDALLEGQKDFFFDQREPVSEKTLELKSKFGKRGYDVSKSWDDSDIVFDKFVIWTRKESNLEAFKSHISNDFDYIDREDEEGEFGEIVLKGYSKATGIKFLQDYFNIPIEDCYALGDSLNDLPMLQYVPNSIAMGNSSKGLFDLVAFVTKDIMEDGIEYALKHYNIIEGHHHHHH”, the “soluble on expression in E. coli” value is listed as “soluble”. Regarding “MNINRNKIVQLADTDTIENLTSALSQRLIADQLRLTTAESCTGGKLASALCAAEDTPKFYGAGFVTFTDQAKMKILSVSQQSLERYSAVSEKVAAEMATGAIERADADVSIAITGYGGPEGGEDGTPAGTVWFAWHIKGQNYTAVMHFAGDCETVLALAVRFALAQLLQLLL”, the “soluble on expression in E. coli” value is “not soluble”. The entry for “MEHFDVAIIGLGPAGSALARKLAGKMQVIALDKKHQCGTEGFSKPCGGLLAPDAQRSFIRDGLTLPVDVIANPQIFSVKTVDVAASLTRNYQRSYININRHAFDLWMKSLIPASVEVYHDSLCRKIWREDDKWHVIFRADGWEQHITARYLVGADGANSMVRRHLYPDHQIRKYVAIQQWFAEKHPVPFYSCIFDNAITDCYSWSISKDGYFIFGGAYPMKDGQTRFTTLKEKMSAFQFQFGKAVKSEKCTVLFPSRWQDFVCGKDNAFLIGEAAGFISASSLEGISYALDSAEILRAVFLKQPEKSNAAYWRATHKLRLKLFGKIVKSRCLTAPALRKWIMRSGVAHIPQLKDYPTRFTSPTSRM” is “not soluble”; for “MSIESLNAFSMDFFSLKGKTAIVTGGNSGLGQAFAMALAKAGANIFIPSFVKDNGETKEMIEKQGVEVDFMQVGITAEGAPQKIIAACERFGTVDILVNNAGICKLNKVLDFGRADWDPMIDVNLTAAFELSYEAAKIMIPQKSGKIINICSLFSYLGGQWSPAYSATKHALAGFTKAYCDELGQYNIQVNGIAPGYYATDITLATRSNPETNQRVLDHIPANRWGDTQDLMGAAVFLASPASNYVNGHLLVVDGGYLVR” it is “soluble”; for “MTTILAFDIETVPDVQGIRTLYELPSSLPDDEVVLFAQQKRRAQTGGDFMQHHLHQVVAISCCMRWGQDKVHVGTIGEMDDGEEVVIAKFFELIEKHTPQLVSWNGGGFDLPVLHYRSLIYGINAARYWDMGDGDFGDSRDFKWNNYISRYHQRHCDLMDLLALYQPRANVPLDDMAKLCGFPGKLGMDGSKVWEAFHTGRLKEIRNYCETDAANTYLMYLRFCLVSGRLDADEYEMEIKRMRNYLSAQAGEKPHWEEFVRAWE” it is “not soluble”.

As to “MGSDKIHHHHHHMNARTLDPTERLIEKEPYYEPVGEEIALFEAAYRQRIPVLLKGPTGCGKTRFMEHMAWRLQRPLITVSCHDDLTASDLVGRYLVKGGETVWVDGPLTRAVRCGGICYLDEIVEARKDTMVVIHPLADDRRTLAMEKLGQMLEAPAEFCLAISYNPGYQSVLKDLKQSTRQRFVALEFDYPSAALEQRIVATESGVSDAVADKLVRFAQMTRNLKGSGLEEGASTRLLVHAGKLISDGISPVTACKSAVAQAVTDDADMLKAIQELSSSVF”, the “soluble on expression in E. coli” value is on record as “not soluble”.

For the origin of these results see the DeepSol protein solubility set.
